Experimental data from patent US10808017B2, “Ubiquitin variants and uses therof as 53BP1 inhibitors” (The Governing Council of the University of Toronto, priority 2016, dated 2020).
Where “and” joins values, the source holds several entries; their conditions need not be identical. Identical values can stand only once.

Tests used:
MGA = target: T1, MGA (Homo sapiens, UniProt Q8IWI9); experiment: Flag IP-MS of i53/i53-DM baits: prey MGA; format: binding; settings: 293T Flp-In/T-Rex extracts, LC-MS/MS, one column per replicate IP
T1 construct: endogenous in cells; host or cells: HEK293 Flp-In/T-REx cells
T1 sequence (Q8IWI9 whole entry): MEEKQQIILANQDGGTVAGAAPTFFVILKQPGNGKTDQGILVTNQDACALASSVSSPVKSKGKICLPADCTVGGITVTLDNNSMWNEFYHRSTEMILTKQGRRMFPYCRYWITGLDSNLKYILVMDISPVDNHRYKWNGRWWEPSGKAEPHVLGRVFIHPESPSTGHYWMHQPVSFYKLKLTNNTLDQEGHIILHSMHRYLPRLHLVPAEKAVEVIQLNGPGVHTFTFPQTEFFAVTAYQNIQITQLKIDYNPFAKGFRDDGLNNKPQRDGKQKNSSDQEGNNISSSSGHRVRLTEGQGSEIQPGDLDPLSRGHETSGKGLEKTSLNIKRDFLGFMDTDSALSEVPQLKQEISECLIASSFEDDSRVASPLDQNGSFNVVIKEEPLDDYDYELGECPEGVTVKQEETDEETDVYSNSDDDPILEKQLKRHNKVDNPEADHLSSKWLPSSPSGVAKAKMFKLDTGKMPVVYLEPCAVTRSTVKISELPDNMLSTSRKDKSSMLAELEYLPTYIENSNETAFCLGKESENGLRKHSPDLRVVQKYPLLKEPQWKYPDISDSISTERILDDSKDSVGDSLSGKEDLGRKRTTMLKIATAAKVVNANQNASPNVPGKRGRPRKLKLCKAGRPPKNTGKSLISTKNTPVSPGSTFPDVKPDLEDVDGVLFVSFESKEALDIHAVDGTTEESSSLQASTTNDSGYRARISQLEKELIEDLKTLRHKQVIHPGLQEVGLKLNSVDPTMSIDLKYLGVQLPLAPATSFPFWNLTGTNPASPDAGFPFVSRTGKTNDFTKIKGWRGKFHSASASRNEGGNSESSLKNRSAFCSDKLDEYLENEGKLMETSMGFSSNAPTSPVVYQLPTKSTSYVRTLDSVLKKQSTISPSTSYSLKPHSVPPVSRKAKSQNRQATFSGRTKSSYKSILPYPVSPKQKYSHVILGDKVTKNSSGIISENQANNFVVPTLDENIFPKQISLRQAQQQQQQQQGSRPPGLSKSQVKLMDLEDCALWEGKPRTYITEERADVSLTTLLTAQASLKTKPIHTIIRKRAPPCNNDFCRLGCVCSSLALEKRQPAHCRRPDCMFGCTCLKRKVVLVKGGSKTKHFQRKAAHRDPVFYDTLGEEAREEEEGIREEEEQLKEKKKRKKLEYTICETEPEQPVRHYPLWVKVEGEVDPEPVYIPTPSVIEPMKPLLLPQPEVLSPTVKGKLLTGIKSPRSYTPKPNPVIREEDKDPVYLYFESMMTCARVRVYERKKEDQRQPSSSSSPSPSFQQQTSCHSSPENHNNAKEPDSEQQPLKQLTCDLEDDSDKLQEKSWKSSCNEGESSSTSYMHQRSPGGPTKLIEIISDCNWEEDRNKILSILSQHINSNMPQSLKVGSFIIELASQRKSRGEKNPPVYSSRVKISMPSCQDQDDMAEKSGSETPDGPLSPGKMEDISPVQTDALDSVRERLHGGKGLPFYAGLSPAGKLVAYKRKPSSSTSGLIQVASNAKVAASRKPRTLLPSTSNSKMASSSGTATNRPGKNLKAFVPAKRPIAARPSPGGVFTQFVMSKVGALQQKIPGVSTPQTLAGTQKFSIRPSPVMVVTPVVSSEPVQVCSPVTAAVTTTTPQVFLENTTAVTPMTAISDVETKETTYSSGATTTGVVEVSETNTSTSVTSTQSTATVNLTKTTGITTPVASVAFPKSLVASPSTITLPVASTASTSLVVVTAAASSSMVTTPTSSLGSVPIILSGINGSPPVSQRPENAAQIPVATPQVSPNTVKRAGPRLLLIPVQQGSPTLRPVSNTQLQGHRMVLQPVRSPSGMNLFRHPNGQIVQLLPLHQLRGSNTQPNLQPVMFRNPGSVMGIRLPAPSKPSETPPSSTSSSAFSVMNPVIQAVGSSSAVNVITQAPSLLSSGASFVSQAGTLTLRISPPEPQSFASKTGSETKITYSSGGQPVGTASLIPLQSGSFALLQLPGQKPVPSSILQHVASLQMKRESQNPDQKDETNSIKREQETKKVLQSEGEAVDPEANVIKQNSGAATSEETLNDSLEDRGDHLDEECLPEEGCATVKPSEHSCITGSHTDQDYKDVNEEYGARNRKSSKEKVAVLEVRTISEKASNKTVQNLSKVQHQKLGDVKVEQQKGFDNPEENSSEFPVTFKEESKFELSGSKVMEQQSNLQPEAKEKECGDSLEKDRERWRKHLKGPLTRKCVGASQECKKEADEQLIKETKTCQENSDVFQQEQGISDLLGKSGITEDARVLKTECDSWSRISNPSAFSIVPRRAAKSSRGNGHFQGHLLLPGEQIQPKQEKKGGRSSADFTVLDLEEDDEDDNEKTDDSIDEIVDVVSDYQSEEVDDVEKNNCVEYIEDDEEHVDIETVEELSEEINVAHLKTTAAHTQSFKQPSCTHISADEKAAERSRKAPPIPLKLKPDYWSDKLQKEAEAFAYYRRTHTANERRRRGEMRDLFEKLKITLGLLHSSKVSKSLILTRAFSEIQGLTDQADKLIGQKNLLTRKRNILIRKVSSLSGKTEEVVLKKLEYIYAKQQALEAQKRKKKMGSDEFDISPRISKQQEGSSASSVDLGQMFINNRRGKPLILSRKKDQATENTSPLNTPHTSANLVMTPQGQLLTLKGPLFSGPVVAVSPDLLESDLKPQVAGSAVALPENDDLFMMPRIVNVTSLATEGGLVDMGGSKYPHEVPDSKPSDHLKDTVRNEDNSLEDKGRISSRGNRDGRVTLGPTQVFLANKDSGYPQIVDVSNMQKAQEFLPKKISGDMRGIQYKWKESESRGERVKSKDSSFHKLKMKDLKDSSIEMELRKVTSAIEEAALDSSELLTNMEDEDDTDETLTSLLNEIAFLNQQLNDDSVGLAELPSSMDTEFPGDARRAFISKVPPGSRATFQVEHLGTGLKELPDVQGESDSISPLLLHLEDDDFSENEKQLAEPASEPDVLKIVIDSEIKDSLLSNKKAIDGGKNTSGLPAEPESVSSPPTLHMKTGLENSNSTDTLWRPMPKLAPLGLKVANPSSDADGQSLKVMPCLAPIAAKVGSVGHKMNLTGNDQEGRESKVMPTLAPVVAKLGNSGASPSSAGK
Experimental: (§1) Following immunoprecipitation of Flag-tagged i53 and i-53-DM from HEK293 Flp-In/T-REx cells, peptides were identified using LC-MS/MS. Proteins were digested in solution with trypsin (Sigma, T7575-1KT) and dried to completeness. For LC-MS/MS analysis, peptides were reconstituted in 5% formic acid and loaded onto a 12-15 cm fused silica column with pulled tip packed in-house with 3.5 μm Zorbax C18 (Agilent Technologies, Calif., USA).
(§2) i53 and i53-DM precipitates were analyzed using an LTQ (Thermo Scientific) coupled to an Agilent 1100 Series HPLC (Agilent Technologies). Peptides were eluted from the column using a 90 min period cycle with a linear gradient from 0% to 40% ACN in 0.1% formic acid. Tandem MS spectra were acquired in a data-dependent mode for the top 5 (LTQ) most abundant ions using collision-induced dissociation. Acquired spectra were searched against the human Refseq_V53 database using Mascot (Matrix Science).
(§3) 293T Flp-In/T-Rex cell lines were generated that expressed Flag-tagged i53 or i53-DM under the control of a tetracycline-inducible promoter as previously described. Nine IP-MS experiments were analyzed (3 biological replicate IPs each for control i53- and i53-DM expressing cell lines). The interacting proteins were identified by MASCOT to identify high-confidence interactors for i53. […]

DLEC1 = target: T2, DLEC1 (Homo sapiens, UniProt Q9Y238); experiment: Flag IP-MS of i53/i53-DM baits: prey DLEC1; format: binding; settings: 293T Flp-In/T-Rex extracts, LC-MS/MS, one column per replicate IP
T2 construct: endogenous in cells; host or cells: HEK293 Flp-In/T-REx cells
Experimental: as §1, §2, §3

RAB34 = experiment: Flag IP-MS of i53/i53-DM baits: prey RAB34; format: binding, human; settings: 293T Flp-In/T-Rex extracts, LC-MS/MS, one column per replicate IP
Experimental: as §1, §2, §3

RPL17 = target: T3, RPL17 (Homo sapiens, UniProt P18621); experiment: Flag IP-MS of i53/i53-DM baits: prey RPL17; format: binding; settings: 293T Flp-In/T-Rex extracts, LC-MS/MS, one column per replicate IP
T3 construct: endogenous in cells; host or cells: HEK293 Flp-In/T-REx
Experimental: as §1, §2, §3

KRT6A = target: T4, KRT6A (Homo sapiens, UniProt P02538); experiment: Flag IP-MS of i53/i53-DM baits: prey KRT6A; format: binding; settings: 293T Flp-In/T-Rex extracts, LC-MS/MS, one column per replicate IP
T4 construct: Following immunoprecipitation of Flag-tagged i53 and i-53-DM from HEK293 Flp-In/T-REx cells, peptides were identified using LC-MS/MS; endogenous in cells; host or cells: HEK293 Flp-In/T-REx cells
T4 sequence (P02538 1-564): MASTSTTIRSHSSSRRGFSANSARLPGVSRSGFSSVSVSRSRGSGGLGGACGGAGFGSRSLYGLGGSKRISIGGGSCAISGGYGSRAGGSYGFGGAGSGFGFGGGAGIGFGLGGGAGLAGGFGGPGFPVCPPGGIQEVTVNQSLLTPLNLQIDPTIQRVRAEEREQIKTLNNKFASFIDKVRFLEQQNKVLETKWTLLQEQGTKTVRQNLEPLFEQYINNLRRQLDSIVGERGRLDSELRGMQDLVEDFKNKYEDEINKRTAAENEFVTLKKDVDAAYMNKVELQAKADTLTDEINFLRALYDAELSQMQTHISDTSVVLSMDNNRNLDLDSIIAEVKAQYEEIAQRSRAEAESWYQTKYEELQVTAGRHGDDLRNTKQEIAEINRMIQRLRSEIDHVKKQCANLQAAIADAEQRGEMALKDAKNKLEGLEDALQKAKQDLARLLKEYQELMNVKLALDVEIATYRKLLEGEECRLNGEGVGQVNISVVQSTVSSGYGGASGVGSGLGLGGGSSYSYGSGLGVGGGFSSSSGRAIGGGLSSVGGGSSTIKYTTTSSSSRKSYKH
Experimental: as §1, §2, §3

ARFGAP2 = target: T5, ARFGAP2 (Homo sapiens, UniProt Q8N6H7); experiment: Flag IP-MS of i53/i53-DM baits: prey ARFGAP2; format: binding; settings: 293T Flp-In/T-Rex extracts, LC-MS/MS, one column per replicate IP
T5 construct: endogenous in cells; host or cells: HEK293 Flp-In/T-REx
Experimental: as §1, §2, §3

VPS13C = target: T6, VPS13C (Homo sapiens, UniProt Q709C8); experiment: Flag IP-MS of i53/i53-DM baits: prey VPS13C; format: binding; settings: 293T Flp-In/T-Rex extracts, LC-MS/MS, one column per replicate IP
T6 construct: endogenous in cells; host or cells: HEK293 Flp-In/T-REx cells
Experimental: as §1, §2, §3

RPL10 = target: T7, RPL10 (Homo sapiens, UniProt P27635); experiment: Flag IP-MS of i53/i53-DM baits: prey RPL10; format: binding; settings: 293T Flp-In/T-Rex extracts, LC-MS/MS, one column per replicate IP
T7 construct: endogenous in cells; host or cells: HEK293 Flp-In/T-REx
Experimental: as §1, §2, §3

RPL8 = target: T8, RPL8 (Homo sapiens, UniProt P62917); experiment: Flag IP-MS of i53/i53-DM baits: prey RPL8; format: binding; settings: 293T Flp-In/T-Rex extracts, LC-MS/MS, one column per replicate IP
T8 construct: Following immunoprecipitation of Flag-tagged i53 and i-53-DM from HEK293 Flp-In/T-REx cells, peptides were identified using LC-MS/MS; endogenous in cells; host or cells: HEK293 Flp-In/T-REx cells
Experimental: as §1, §2, §3

RPL29 = target: T9, RPL29 (Homo sapiens, UniProt P47914); experiment: Flag IP-MS of i53/i53-DM baits: prey RPL29; format: binding; settings: 293T Flp-In/T-Rex extracts, LC-MS/MS, one column per replicate IP
T9 construct: endogenous in cells; host or cells: HEK293 Flp-In/T-REx cells
Experimental: as §1, §2, §3

RERGL = target: T10, RERGL (Homo sapiens, UniProt Q9H628); experiment: Flag IP-MS of i53/i53-DM baits: prey RERGL; format: binding; settings: 293T Flp-In/T-Rex extracts, LC-MS/MS, one column per replicate IP
T10 construct: endogenous in cells; host or cells: HEK293 Flp-In/T-REx cells
T10 sequence (Q9H628 1-204): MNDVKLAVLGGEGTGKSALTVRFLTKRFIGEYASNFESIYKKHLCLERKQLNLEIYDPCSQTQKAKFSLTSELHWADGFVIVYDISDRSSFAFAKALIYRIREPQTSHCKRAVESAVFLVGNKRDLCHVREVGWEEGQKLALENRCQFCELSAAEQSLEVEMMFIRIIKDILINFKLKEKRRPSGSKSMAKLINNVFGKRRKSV
Experimental: as §1, §2, §3

TP53BP1 = target: T11, TP53BP1 (Homo sapiens, UniProt Q12888); experiment: Flag IP-MS of i53/i53-DM baits: prey TP53BP1; format: binding
T11 construct: endogenous in cells; host or cells: HEK293 Flp-In/T-REx
T11 sequence (Q12888 whole entry): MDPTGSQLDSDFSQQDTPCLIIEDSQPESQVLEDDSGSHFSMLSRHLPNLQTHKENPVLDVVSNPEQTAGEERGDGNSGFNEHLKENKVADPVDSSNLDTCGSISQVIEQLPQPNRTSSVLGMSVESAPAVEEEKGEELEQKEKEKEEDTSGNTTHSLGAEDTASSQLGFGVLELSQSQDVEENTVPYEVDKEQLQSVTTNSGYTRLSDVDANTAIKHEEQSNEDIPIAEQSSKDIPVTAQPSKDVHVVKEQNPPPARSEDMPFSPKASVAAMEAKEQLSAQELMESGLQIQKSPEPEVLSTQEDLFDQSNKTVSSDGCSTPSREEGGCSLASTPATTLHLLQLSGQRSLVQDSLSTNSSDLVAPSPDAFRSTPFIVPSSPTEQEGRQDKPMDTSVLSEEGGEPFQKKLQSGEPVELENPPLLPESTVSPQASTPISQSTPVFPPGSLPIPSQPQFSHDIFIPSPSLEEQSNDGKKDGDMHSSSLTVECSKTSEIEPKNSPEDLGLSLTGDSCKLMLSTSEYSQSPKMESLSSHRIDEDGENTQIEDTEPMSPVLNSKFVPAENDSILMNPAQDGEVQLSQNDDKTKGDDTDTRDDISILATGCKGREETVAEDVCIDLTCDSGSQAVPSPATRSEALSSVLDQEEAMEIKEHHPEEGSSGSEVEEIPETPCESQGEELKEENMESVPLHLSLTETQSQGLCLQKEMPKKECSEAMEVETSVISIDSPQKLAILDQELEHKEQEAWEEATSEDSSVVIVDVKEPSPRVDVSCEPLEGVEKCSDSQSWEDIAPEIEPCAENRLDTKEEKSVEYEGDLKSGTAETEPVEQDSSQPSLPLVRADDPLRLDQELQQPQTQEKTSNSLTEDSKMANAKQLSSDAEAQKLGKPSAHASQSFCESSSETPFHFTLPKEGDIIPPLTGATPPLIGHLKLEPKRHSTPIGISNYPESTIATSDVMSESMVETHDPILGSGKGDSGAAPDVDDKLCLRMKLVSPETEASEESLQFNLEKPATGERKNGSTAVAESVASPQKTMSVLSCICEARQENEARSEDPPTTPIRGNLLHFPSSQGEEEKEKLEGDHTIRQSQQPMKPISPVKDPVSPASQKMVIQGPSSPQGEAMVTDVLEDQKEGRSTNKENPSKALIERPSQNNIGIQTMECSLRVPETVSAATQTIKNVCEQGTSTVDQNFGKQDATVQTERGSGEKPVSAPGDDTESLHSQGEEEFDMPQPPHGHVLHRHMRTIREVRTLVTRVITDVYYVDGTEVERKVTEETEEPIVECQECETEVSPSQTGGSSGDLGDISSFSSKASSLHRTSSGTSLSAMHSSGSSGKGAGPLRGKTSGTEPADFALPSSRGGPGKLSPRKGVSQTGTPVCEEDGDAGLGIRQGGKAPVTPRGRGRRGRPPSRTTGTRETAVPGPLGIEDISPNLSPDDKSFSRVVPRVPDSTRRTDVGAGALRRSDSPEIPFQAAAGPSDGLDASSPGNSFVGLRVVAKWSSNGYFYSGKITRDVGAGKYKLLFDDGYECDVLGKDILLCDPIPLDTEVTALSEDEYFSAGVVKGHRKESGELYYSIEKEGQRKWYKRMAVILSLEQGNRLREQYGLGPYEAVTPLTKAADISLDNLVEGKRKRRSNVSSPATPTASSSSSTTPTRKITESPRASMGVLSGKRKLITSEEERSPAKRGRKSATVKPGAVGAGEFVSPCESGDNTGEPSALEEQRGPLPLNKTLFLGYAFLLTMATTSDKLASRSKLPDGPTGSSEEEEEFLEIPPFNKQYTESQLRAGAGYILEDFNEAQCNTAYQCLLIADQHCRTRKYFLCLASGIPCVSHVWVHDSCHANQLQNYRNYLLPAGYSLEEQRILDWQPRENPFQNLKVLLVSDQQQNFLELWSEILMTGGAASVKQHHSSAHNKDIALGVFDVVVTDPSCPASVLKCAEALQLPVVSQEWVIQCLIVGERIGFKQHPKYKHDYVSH
Experimental: as §1, §2, §3

HIST1H2BG = target: T12, HIST1H2BG (Homo sapiens, UniProt P62807); experiment: Flag IP-MS of i53/i53-DM baits: prey HIST1H2BG; format: binding; settings: 293T Flp-In/T-Rex extracts, LC-MS/MS, one column per replicate IP
T12 construct: endogenous in cells; host or cells: HEK293 Flp-In/T-REx
Experimental: as §1, §2, §3

GSPT1 = target: T13, GSPT1 (Homo sapiens, UniProt P15170); experiment: Flag IP-MS of i53/i53-DM baits: prey GSPT1; format: binding; settings: 293T Flp-In/T-Rex extracts, LC-MS/MS, one column per replicate IP
T13 construct: endogenous in cells; host or cells: HEK293 Flp-In/T-REx
Experimental: as §1, §2, §3

CAPZA2 = target: T14, CAPZA2 (Homo sapiens, UniProt P47755); experiment: Flag IP-MS of i53/i53-DM baits: prey CAPZA2; format: binding; settings: 293T Flp-In/T-Rex extracts, LC-MS/MS, one column per replicate IP
T14 construct: endogenous in cells; host or cells: HEK293 Flp-In/T-REx
Experimental: as §1, §2, §3

Substance | Total peptides, MGA (MGA) | Total peptides, DLEC1 (DLEC1) | Total peptides, RAB34 (RAB34) | Total peptides, RPL17 (RPL17) | Total peptides, KRT6A (KRT6A) | Total peptides, ARFGAP2 (ARFGAP2) | Total peptides, VPS13C (VPS13C) | Total peptides, RPL10 (RPL10) | Total peptides, RPL8 (RPL8) | Total peptides, RPL29 (RPL29) | Total peptides, RERGL (RERGL) | Total peptides, TP53BP1 (TP53BP1; Flag IP, 293T Flp-In/T-Rex extracts, LC-MS/MS, one column per replicate IP, listed as Flag-i53) | Selectivity of binding to cellular proteins (IP-MS conclusion) (TP53BP1; three biological replicate IPs, interactors in two or more experiments) | Total peptides, HIST1H2BG (HIST1H2BG) | Total peptides, GSPT1 (GSPT1) | Total peptides, CAPZA2 (CAPZA2)
i53-DM: 53BP1-binding deficient mutant of i53 (P69L, L70V) | 2 | 2 | 2 | 5 | 3 | 3 | 5 | 11 | 5 | 3 | 2 |  |  |  |  | 
i53: UbvG08 with C-terminal di-glycine removed and I44A mutation; genetically encoded inhibitor of 53BP1 |  |  |  |  |  |  |  |  |  |  |  | 66 and 38 and 21 | highly selective binder of 53BP1 | 4 | 3 | 7
